Molecular target: FluA-20 mAb
Assay: BLI

FluA-20 mAb, sequence (heavy, as listed by the source, chain 1 of 2): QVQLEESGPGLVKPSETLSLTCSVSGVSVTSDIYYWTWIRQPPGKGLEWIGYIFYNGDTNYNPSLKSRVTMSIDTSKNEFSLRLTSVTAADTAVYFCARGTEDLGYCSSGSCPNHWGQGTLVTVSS
FluA-20 mAb, sequence (light, as listed by the source, chain 2 of 2): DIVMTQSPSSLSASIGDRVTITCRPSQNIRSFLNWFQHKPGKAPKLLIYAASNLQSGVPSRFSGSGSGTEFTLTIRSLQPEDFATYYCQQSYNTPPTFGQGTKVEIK
HA220-2, sequence (Q9NZ52 16-146): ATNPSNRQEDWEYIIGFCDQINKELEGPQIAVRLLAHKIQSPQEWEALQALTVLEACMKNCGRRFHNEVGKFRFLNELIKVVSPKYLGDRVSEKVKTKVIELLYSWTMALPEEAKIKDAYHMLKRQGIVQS

HA220-2 (from UniProt Q9NZ52 16-146) showed a Kd of 978 nM.
